Assay [1] deals with hepatitis B virus surface antigen (HBsAg) (hepatitis B virus). Kind of assay: ELISA, commercial HBsAg plate, well held 30 min in PBS pH 6.0 after binding, GAH-HRP secondary antibody, OD(450/630).
For assay [2] the target is unchanged. Nature of the assay: SPR, Biacore 3000, HBsAg on CM5 chip, antibody as analyte, pH 7.4. (In general: SPR reads the build-up and loss of mass on a sensor chip optically.)
Assay [3] has the same target. Nature of the assay: ELISA, commercial HBsAg plate, well held 30 min in PBS pH 7.4 after binding, GAH-HRP secondary antibody, OD(450/630). In general terms: In an ELISA, binding on a coated surface is turned into a signal by an enzyme label.
Assay [4] has the same target. Nature of the assay: ELISA on commercial HBsAg plate, pH 7.4.
For assay [5] the target is unchanged. Nature of the assay: ELISA on commercial HBsAg plate, pH 6.0.
Assay [6] has the same target. Kind of assay: ELISA on commercial HBsAg plate, ratio of EC50 at pH 6.0 to pH 7.4.

B1: anti-HBV humanized antibody M1D (antibody, V domains shown)
VH: QVQLQESGPGLVKPSETLSLTCTVSGGSITSNFWSWIRQPPGKGLEWIGYISGSGTYTDYNPSLKSRVTISVDTSKNQFSLKLSSVTAADTAVYYCARSHDYGSNDYAFDFWGQGTTVTVSS
VL: DIQMTQSPSSLSASVGDRVTITCRATQDISSSLNWYQQKPGKAPKLLIYYANRLQSGVPSRFSGSGSGTDFTLTISSLQPEDFATYYCQQYHSLPLTFGGGTKVEIK
Take B1: the EC50 (read off the curve) in assay [1] and in assay [3] was 0.01 µg/mL throughout. In assay [2], the Kd (commonly a measure of binding affinity in units of concentration) was determined as 534 pM.

B2: A42-23 (antibody, human IgG1, kappa, V domains shown)
VH: QVQLQESGPGLVKPSETLSLTCTVSGGSITHNFWSWIRQPPGKGLEWIGYISGYDTYTDYNPSLKSRVTISVDTSKNQFSLKLSSVTAADTAVYYCARSHDYGHHDYAFDFWGQGTTVTVSS
VL: DIQMTQSPSSLSASVGDRVTITCRATQDIHHSLNWYQQKPGKAPKLLIYYANRLQSGVPSRFSGSGSGTDFTLTISSLQPEDFATYYCQQYHYLPLTFGGGTKVEIKR
In the case of B2, the concentration for a half-maximal effect (EC50) (as a rule, the concentration giving half of the maximal effect) was 0.0127 µg/mL in assay [4] and 0.345 µg/mL in assay [5]. Besides, the EC50(pH 6.0)/EC50(pH 7.4) in assay [6] came to 27.2.

The values above are taken from patent US20220235117A1.
